From a protein production outcome set (Wang et al. 2014)

Experiment: label from the status in PepcDB records
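Further: failed if final PepcDB status was selected cloned or expressed and not failed if soluble or beyond.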

Q: For “MSQETPYIFDARTADFDQSVIENSFHKPVLVDFWAEWCAPCKALMPMLQQIAESYQGELLLAKVNCDIEQDIVARFGIRSLPTVVLFKDGQPVDGFAGAQPESAVRAMLEPHVQMPPPPAADPLEQAEALFAEGRIGDAEALLKVLLGEDNSNAKALILYARCLAERGELGEAQTVLDAVKSDEHKAALAGAKAQITFLKQAADLPDAAELKARLAKDPQDDEALYQLAIQQLARQQYEAALEALLKLFMRNRSYNEGIAHKTLLQVFDLLGNDHPLVTAYRRKLFAALY”, which protein production is on record?
A: Its protein production is “failed”.

Q: With “MNDLTKGKPLKLIFWFTIPLLIGNIFQQFYSLSDTLIVGQTLGVKALAAVGSTGSVQFLIIGFAQGLTAGLSILTAQHFGARDFKAVRRSFAISIVVSLIVGIILTILSLIFVDHILLLMQTPTDIIADARTFLQIMLGGMLAPIAFNLLSNIIRALGDSRTPLWFLIISALINIGLELLFILVFKWGIAGASWATILAQTIATLMCVVYIIVKVPILHIGRRHFKLVWSEVKAHLNVGLPMAFQMSIIAIGTIVLQAALNSLGTNSVAATTAAQKIDQVATQPLMSFGVTMATFAAQNYGAHQYERIITGVKQTMWLSGSFSVAAGLIEIIWGKQLVGFFVGHQDMAVLNLSQTYFNVIGSTYILLSMLFIMRNTLQGLGRSAIPTLAGAAELFMRVFAALILVRIFDYAGACSSEPLAWLGSCAVLLPAYIKSVHDLRQQARMTNTVAEGAEPILNDSEKL” as the sequence, how does the protein production read?
A: Its protein production is “failed”.

Q: Which protein production does the source give for “MSFGDTLGLGFMTFAFFLGAGNLIFPPFAGMLAGENMLLAMLGFLITAVGLPLVGLIAVAKAQGKVMAMLPVFAATALAIAIYIIIGPAFAAPRTGLVAYEIGAKPFIDNTTATIMLGSLSLNLSQLIYTLGFFIVTMLLALFPGKLLDSVGKVLTPILLLLLVGLALSVLFLPASEVGVAVGDYKNHPLTKGILEGYNTMDTLASLMFGMLIIDLLRKKGIEQPSAQTKYLIRAAFIAAAGLAFVYVSLFFLGATAGDIAAGAKNGGEILTNYVTREFGSLGTVLLSAVVTLACLTTAVGLVSACSEFFNELMPKLSYRFLVVALSAICALIANVGLSQLINISIPVLMAVYPVAIALVAVTFLTEYFPRPQFAHRAALSVALLFGIFDGMKVAAKSLTGEDGRGITEFAQSFIDFVNGMSPTLSILPLYEEGMAWLLPTLVVIVLCLIIRGSGAKTVSAA” here?
A: Its protein production is “failed”.

Q: For “MLLNEIPWTIPLTVRLSNGLTHTFASVYEALDFLENEWPLRKGERYERAVRTCRRALNRMTPAAVAREAFIAACLEAGMPLVMAPPAREPQGDTVKAAHTA”, which protein production is on record?
A: Its protein production is “not failed”.

Q: For “MRSETVSTHTKPVRPEPPAPAAEVPAGAFPPGQERDHDTRPSAPPRDQSPPPAPEADSRSAARPAPPTHPGTSSTVWVRRRLARLGAQRGTTMNPVLEPLVKTVRATHPKADIRLIERAYDVAAHYHRSQKRKSGDPYITHPLAVATILAELGMQEATIAAGLLHDTVEDTEYTLDQLRSDFGDEIAELVDGVTKLDKVKYGEATQAETVRKMVVAMARDIRVLVIKLCDRLHNMRTLRYLPQAKREKKARETLEIYAPLAHRLGMNTIKWELEDLAFATLYPKRFDEIARLVAERAPRRDVYLQEVIEIVSADLREAKIKATVRGRPKHYYSIYQKMIARNVGFDEIYDLVGIRVIVDSVRDCYAALGIIHARWNPVPGRFKDYIAMPKFNMYQSLHTTVIGPEGSPVELQIRTRAMHRRAEYGIAAHWKYKEERNNGGKAKGASTDMAWLRQLIDWQQETKDPGEFLESLRFDLSVQEVFVFTPRGDVIALPQGATPVDFAYAVHTEVGHRTVGARVNGRLVPLDSELHNGETVEIITAKTDDAGPSRDWLDFVKSARARNKIRQWFTKERREAAIEQGKEAIAKVMRKQELPVQRLFTSESLIALAHDLRYRDLDALYAAVGENQISAHKVVEKLIESVGSLDNNEEDIAEATTPIRVPRKRPTGNPGVVVQGDPDVWVRLSKCCTPVPGDAIIGFVTRGAGVSVHRDDCGNVKHLDPDRLVQVEWQPTGNSMFLVALQIEALDRTRLLSDITRVLSDQHVNILSATVQTTRDRVALSRFTFEMADPAHLGHVLKAVRSVDGVYDVYRVRN”, which protein production is on record?
A: The protein production was “failed”.

Q: For “MDLALAPETLARWQFGITTVYHFLFVPLTISLAALTAGLQTAWVRTEKEKYLRATKFWGKLFLINIAMGVVTGIVQEFQFGMNWSDYSRFVGDVFGAPLAFEALIAFFFESTFIGLWIFGWDKLPKKIHLACIWMVSIGTLLSAYFILAANSWMQHPVGYRINEEKGRAELTDFWQVLTQNTTLNQVFHSFSAAFLTGGAFMVGIAAFHLMRKKHIPVMRTSLRLGLVTLAVGGLLTAVSGDTLGKVMYEQQPMKMAAAEALWDGEKPAPFSVFAYGDVDKGHNKVALEVPGLLSFLAHSDFESYVPGINDTNKALQEQFGPGDYKPIVPVAYWGFRWMIGFGMASFSLGLLGLWLTRKRFLLPPALRTGEDEVPHLVLLKKPLGARLTRMYWLLALWTMAFPLIANSWGWIFTEMGRQPWVVYGVMQTRDAVSPGVSTAEVIISMSVFTLLYAVLAVIEVKLLAKYVKAGPPELTEADLNPPTKIGGDLRDADKPMAFSY”, which protein production is on record?
A: Its protein production is “failed”.

Q: With “MLFQDDKGVGVAIYRRRFTVLGCASSPGVPRINGDWGACDPQNPRNRRTRAAFMVEQIGPDGGKTTVVIDTGPDFREQMIAAKVQAVDAVLYTHAHADHLHGIDDLRIYFALQKSRIPIWADPVTMARIRDGFAYCLETPAGSNYPPIVRPQLIADINDPVIIDGAGGPIPFKVHMQQHGDVHSLGFRIGDVAYCTDVSDFPAESLPKLTGLDVLVIDALQYRYHPSHLSLEQALGWIEALAPKRAILTHMHIPLDYDTVMRETPDHVEPAYDQMRFEVEIEAP” as the sequence, how does the protein production read?
A: The protein production was “failed”.

Q: With “MASRSASQASDALSQHGCPFSVRAKAFHGGRCMHELIGDITLSILFAWLLGLAAHFFRQPLILAYLIGGFVIGPFGLGWVKSENSISVISELGLIFMLFMIGLEIDLKKIIRAGPVILVAAGGQIAGGVLLGLAFFVGIGLSLGGGHFDALYLTVACALSSTVIIVKVLYEKRELDTLPGRITLGILVLQDIFAILFLAVQPSLADLQISVLLLSIARVVALVATALALSRYVLPWLFHRIARTPELVLLGALAWCFLIGEIAERLHLSREMGALVAGVSLSTFPYALDVTAKVTTLRDFFITLFFVALGMTIPIPNGSVIGLALAIAVFTLASRLLTTFLPLYLMKQGLRASLLPALNLAQISEFSLVVIQTGVAAGHIGTQTASAASFAFVLLAVLSTFVIMRSDPITRRAIGTLTKFGFRDLGQQQSGAEAAAEAGHGAVHRIVILGFFRAASALVSEIEQHTPELLKQISVIDFNPMVYRTLTERGMHVIYGDISNVDTLLHAGVAKAEIIILSVPDSLLKGATNERLVRHVRALNPNAQIVATADLLADVEAMYQAGADYVTVTRLADARELFEVIEAADNGLLSDKRAALDARLAERREVLP” as the sequence, how does the protein production read?
A: The protein production was “failed”.

Q: For “MKEEIVNERQCETEDEKIDIQQLLFKYIIHWPWFVGAVLVCLIGAWIYLRMATPVYNISATVLIKDDKKGGNTGSMVGLEELGLSGLISSSQNIDNELEVLRSKTLVKEVINLLNLYVSYTDEDGFPSKNMYKTSPVLVSLTPQEAEKLTDPMVVEMALYGEGGLEVNVTVGDKEYQKHFEKLPAVFPMDEGTLAFFQSPDSLSLKKDTMEASSNIRHITAKIKSPMKVARAYCENLKIEPTSKTTSVAVISLKNSSLQRGQDFINQLLEMYNRNTNNDKNEIAQKTAEFIDERINIISKELGSTEANLENFKRNAGITDLTSEAQIALTGNAEYEKKRVENRTQISLIEDLRKYIRGNEYEVLPGNIGLQDPGLVATIERYNEMLVERKRLLRTSTENNPTIINLDTSIRAMKSNVQATLDGSLKGLLITKADLEREASRFSRRISDAPGQERQFVSIARQQEIKAGLYLMLLQKREENAIALAATANNAKIIDEAIADDIPVSPKRRMIYLIALVLGIGIPVGIIYLIGLTKFKLEGRADVEKLTTIPIVGDIPLTDEKNEKDGSIAVFENQNNLMSETFRNIRTNLQFMLQNDKKVILVTSTVSGEGKSFISANLAISLSLLGKKVVIVGLDIRKPGLNKVFRLSTKEKGITLYLANPETDLMSLVQPSDINQNLYILPGGTVPPNPTELLARDGLDKAIEILKKNFDYVILDTAPVGMVTDTLLIGRVADLSVYVCRADYTHKVEYTLINELAEEKKLPNLCTVINGVDLKRRKYGYYYGYGKYGKYYGYGKRYGYGYGYGQEKGAKS”, which protein production is on record?
A: The protein production was “failed”.

Q: Which protein production does the source give for “MSLSWEIEELDREIGKIKKHSLILIHEEDASSRGKDILFYILSRKLKSDNLVGMFSISYPLQLIIRILSRFGVDVIKYLENHRLAIVDTFGSFHGIKATMPGVWYLEGMLSSETLPIKYAKAVEDHKKVWMDLNLFEGRELYGFAISMSGYLEVFTPEETLRYLETSAEVRYGHPAYKKYPRGTNFWLWEGVKDKRVLLSVYRRADYVLKTRSSLGENGIKRELLVIKTPKPIEELVRFEYEFKGNEPKLRREGHHHHHH” here?
A: The protein production was “not failed”.

Q: Which protein production does the source give for “MGVLWNSIQSVLVVVLIMILGFVLRRAGWFDDKFAGTISKFIKNIALPASIFVSVLSRLTRGQLGSFAGYLAYAFLAVIIGYLIAFALVKVMRVRPGRKGIFINAIVNANTIFIGLPLNIALFGDKSMTYFLVYYIVNTVSTWAFGVFLISNDDPTKSKEKTHNKIDWKKVIPMPLVGFLVALIFLLLNIPIMKVSFVSSTLTYVGNLVTPLSLIYIGIVLADAGLKSIRFDRDTVVALVGRFILSPIVMILVLMVAGNLGASFPTLASQTLIVQSATPMLAVLPILANEAHGDVEYATNIVTTSTVLFIVVVPVLMTLIQYI” here?
A: The protein production was “failed”.

Q: With “MAAFPNLNSGSGLKKLDEHLLTRSYITGYQASKDDITVFTALSKPPTSEFVNVSRWFNHIDALLRISGVSAEGSGVIVEGSSPITEEAVATPPAADSKDTAAEEEDDDDVDLFGEETEEEKKAAEERAASVKASTKKKESGKSSVLMDIKPWDDETDMKKLEEAVRSIQMEGLFWGASKLVPVGYGIKKLHIMCTIVDDLVSIDTMIEEQLTVEPINEYVQSCDIVAFNKI” as the sequence, how does the protein production read?
A: Its protein production is “failed”.

Q: For “MLLKILVKLIILDSSCSFLERFKLIIDCYTNKDIPDIDRQLPIWMLWRIWKSRNLSVYQHKSSTWREDFIKTVNDATEWALVWTIDSTTNIQTRQVQSRTHHSAWTRPKEDFVKCNFDCKFSKNNNVSQAGRSKGQHCSMSMEAELQALVMAMQHVWSKGYKKVIFEGDNLRLSSFLRKIKPTSKFTTGSEKIIIRKKGLAMLNSIGQEEKTTK”, which protein production is on record?
A: Its protein production is “failed”.

Q: Which protein production does the source give for “MSLRKEPYLLVFGASVVDVFGFSKASYRPYNSTPGHVKISFGGVCRNIAENMARVGVNTNFMSILGNDEHGKSIVEHSKKIGYHMDDSMVIEGGSTPTYLAILDENGEMVSAIADMKSIGAMNTDFIDSKREIFENAEYTVLDSDNPEIMEYLLKNFKDKTNFILDPVSAEKASWVKHLIKDFHTIKPNRHEAEILAGFPITDTDDLIKASNYFLGLGIKKVFISLDADGIFYNDGVSCGKIKATEVDVKNVTGAGDSFVAGLGYGYMNKMPIEDIVKFAMTMSNITISHEETIHPDMALDTVLAKLEKTTWEEEKYDLNEGHHHHHH” here?
A: The protein production was “not failed”.

Q: For “MRTAVIIPFYQREAGILSRALDSVDGQILPEGHSLTVFVIDDESPVSARSEVEGRQGKVPVRLIAQKNGGPGAARNAGLDAVAAEGFDHVAFLDSDDIWQPTHLADALDLLARGYDFHFCDHQRTDDDITYFERTPALRRMREERHAGVTVLDAEAPILAFDQPSIMAASVDTYLSQTSTVVVRQSFVETLRFDPRLRNAGEDQLFWLSLIAAGARTVVSWKMNVLCGRGVNVYFDAFDWKSTKVVDRTGYMLMFFHTVGRRLSLTASDRRTVADRIRRYRRAYSYLFLRALLQGRVPTLSLTWKLAALDPGLVPAMPLRFLAVLPNREAESLQWLEHHHHHH”, which protein production is on record?
A: Its protein production is “failed”.

Q: Which protein production does the source give for “NTAPSLTVPECAICLQTCVHPVSLPCKHVFCYLCVKGASWLGKRCALCRQEIPEDFLD” here?
A: Its protein production is “not failed”.

Q: For “MSINLSKGDKIDLKKSNPGLSNILVGLGWDPVQQSGGGFFKSLFGGGQADIDCDASVFMLNQEGKLSGIKDLIYFGNLKSACKSVLHTGDNLTGEGTGDDEQILVNLDKVPSNIHKLLFVVNIYNCVDRKQHFGMIENAYIRVEDQGNKKEIAKYNLSDNYSEKTTLIVGAIYRKDGSWQFKAIGEGTKDAGLKEVMQNLDRIECAYGI”, which protein production is on record?
A: The protein production was “failed”.
